The values below come from paper PMC2972695.

The target in data set [1] is T1, GST-SHOX2 (UniProt O60902 1-331). Description: EMSA.
Data set [2] concerns the target T1, GST-SHOX2. Description: competition.

T1 sequence (O60902 whole entry): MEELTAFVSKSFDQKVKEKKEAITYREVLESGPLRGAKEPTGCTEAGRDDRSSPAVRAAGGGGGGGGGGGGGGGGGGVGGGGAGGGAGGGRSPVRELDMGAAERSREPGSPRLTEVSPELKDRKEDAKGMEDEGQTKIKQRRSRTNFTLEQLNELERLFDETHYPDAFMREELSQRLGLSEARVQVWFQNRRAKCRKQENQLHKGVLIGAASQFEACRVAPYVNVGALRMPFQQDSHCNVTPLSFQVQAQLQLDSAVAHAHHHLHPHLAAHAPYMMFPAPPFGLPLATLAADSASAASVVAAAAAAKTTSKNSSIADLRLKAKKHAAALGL

B1: BMP4 EMSA oligonucleotide (34 bp conserved promoter motif) (dsDNA)
DNA 1: GGGTCTCATTATATTCAAATATTCCTTTTAGGAGCCA
DNA 2: GGGTGGCTCCTAAAAGGAATATTTGAATATAATGAGA
With B1, in the data set with GST-SHOX2 [1], the binding result is recorded as “binds”.

B2: BMP4 oligonucleotide, unlabelled homologous competitor (dsDNA)
DNA 1: B1 DNA 1
DNA 2: B1 DNA 2
Consider B2, for which the binding result in the data set with GST-SHOX2 [2] is “binds”.
